Experimental data taken from patent US20050148511A1.

Tests used:
[1] = biological target: FGFR1 expressed on FDCP cells; test: cell-based or functional assay
[2] = biological target: FGFR3IIIc expressed on FDCP cells; test: cell-based or functional assay

Row | EC50 (effective concentration), mitogenicity on FGFR-transfected FDCP cells [1] | EC50 (effective concentration), mitogenicity on FGFR-transfected FDCP cells [2] | Substance
1 | 2.65 ng/mL | 4.2 ng/mL | wild type FGF-2 (from UniProt P09038 1-155) (ligand)
2 | 0.35 to 1 ng/mL | 0.3 to 0.65 ng/mL | FGF2(3,5Q)-N111G (ligand)
